Test results from US20240398942A1 (CHIA TAI TIANQING PHARMACEUTICAL GROUP, published 2024).
Read-outs that look alike come from different tables or passages of the source.

Tests used:
[1] = molecular target: T1, recombinant human CD40-his (Acro biosystems, Cat. No. CD0-H5228) (human, UniProt P25942 21-193); experiment: SPR (Biacore T200), antibody captured, CD40-his as analyte, 1:1 fit
T1 construct: Bought protein; also called human CD40-his protein; not shown: His tag
Excerpt: (§1) Briefly, a goat anti-human IgG (GE Healthcare, Cat. No. BR100839, human antibody capture kit) was covalently linked to a CM5 chip (GE Healthcare, Cat. No. BR100530, carboxymethylated dextran-coated chip) via the primary amine group using a standard amine coupling kit supplied by Biacore (GE Healthcare, Pittsburgh, PA, USA). Unreacted portions on the biosensor surface were blocked with ethanolamine. Then, the anti-CD40 antibody of the present application and two benchmark antibodies (BM1 (dacetuzumab, Genentech Inc., also referred to CD40-BM1, prepared in-house; the heavy and light chain amino acid sequences are set forth in SEQ ID NOs: 40 and 41, respectively) and BM2 (selicrelumab, Abgenix Inc., also referred to CD40-BM2, prepared in-house; the heavy and light chain amino acid sequences are set forth in SEQ ID NOS: 42 and 43, respectively)) at a concentration of 66.67 nM were directed through the chip at a flow rate of 10 μL/min. Then, serially diluted recombinant human CD40-his (Acro biosystems, Cat. No. CD0-H5228, serially 2-fold diluted from 80 nM in HBS-EP⁺ buffer (supplied by Biacore)) or cynomolgus monkey CD40-his protein (Acro biosystems, Cat. No. CD0-C52H6, serially 2-fold diluted from 80 nM in HBS-EP⁺ buffer (supplied by Biacore)) was directed through the chip at a flow rate of 30 μL/min. The antigen-antibody binding kinetics was tracked for 2 min and the dissociation kinetics was tracked for 10 min. The association and dissociation curves were fitted to a 1:1 Langmuir binding model using BIAcore evaluation software. KD, Kₐ, and Kd values were determined.

[2] = molecular target: T2, cynomolgus monkey CD40-his protein (Acro biosystems, Cat. No. CD0-C52H6) (cynomolgus monkey, UniProt G7PG38 21-193); experiment: as above
T2 construct: Bought protein; not shown: His tag
Excerpt: as §1

[3] = molecular target: T1, recombinant human CD40-his (Acro …); experiment: as above; remark: listed apart in the source
[4] = molecular target: T2, cynomolgus monkey CD40-his protein …; experiment: as above; remark: listed apart in the source
human CD40-Fc protein = molecular target: T3, human CD40-Fc protein (human, biotinylated (sites not given) in the capture ELISA and the benchmark blocking ELISA; not biotinylated in the ligand blocking ELISA); experiment: competitive ELISA (self-competition): BM2 (selicrelumab) coated as competitor, soluble BM2 titrated and pre-mixed with biotinylated human CD40-Fc 0.23 nM, streptavidin-HRP, OD(450-630)
T3 construct: also called biotinylated human CD40-Fc
Description: The ability of the anti-CD40 antibody of the present application to block the binding of the benchmark to human CD40 was determined by competitive ELISA. Briefly, BM2 antibody was immobilized on a 96-well micro plates at 1 μg/mL in PBS, 100 µL/well, and incubated overnight at 4° C. The next day, the plate was washed once with a washing buffer before a blocking buffer (PBST containing 5% w/v of skim milk) was added. The plate was then incubated at 37° C. for 2 h for blocking. During the blocking of the 96-well plate, the anti-CD40 antibody of the present application or the benchmark was serially 5-fold diluted from 66.7 nM with a biotinylated human CD40-Fc protein (amino acid residues 21-193 of SEQ ID NO: 30 linked to the N terminus of amino acid residues 99-330 of SEQ ID NO: 28, dissolved in PBST containing 2.5% w/v of skim milk at a concentration of 0.23 nM) and then incubated at room temperature for 40 min. After the plate was washed 4 times, the antibody/biotinylated human CD40-Fc mixture was added at 100 μL/well to the plate coated with BM2. The plate was incubated at 37° C. for 40 min and again washed 4 times with the washing buffer. […] The absorbance was read on a microplate reader using the dual wavelength mode (TMB detection wavelength: 450 nm, reference wavelength: 630 nm). […] Data were analyzed using Graphpad Prism software, and IC₅₀ values were obtained.

Row | Kd [1] [nM] | koff [1] [s⁻¹] | kon [1] [M⁻¹ s⁻¹] | Kd [2] [nM] | koff [2] [s⁻¹] | kon [2] [M⁻¹ s⁻¹] | Kd [3] [nM] | koff [3] [s⁻¹] | kon [3] [M⁻¹ s⁻¹] | Kd [4] [nM] | koff [4] [s⁻¹] | kon [4] [M⁻¹ s⁻¹] | IC50 (human CD40-Fc protein) [nM] | Binder
1 | 0.684 | 0.00123 | 1.79e+06 | 0.852 | 0.00118 | 1.39e+06 | 0.428 | 0.000897 | 2.1e+06 | 0.377 | 0.000863 | 2.29e+06 | – | mouse anti-CD40 monoclonal antibody C1H1 (antibody, V domains shown, Parent mouse antibody from a hybridoma; the mouse constant regions are not; also called Mouse C1H1) VH: EVKLVESGGGLVKPGASLKLSCAASGFTFSNYGISWVRQTSDKRLEWVASISSGGDNTYYPDNVKGRFTISRENAKNTLYLQMSSLKSEDTALYYCARAGEKAMDYWGQGTSVTVSS VL: DIVLTQSPVTLSVTPGDSVSLSCRASQTINNNLHWYQQKSHESPRLLIKYASQSISGIPSRFSGSGSGTDFTLSINSVETEDFGIYFCQQFSSWPLTFGAGTKLELK
2 | – | – | – | – | – | – | – | – | – | – | – | – | 0.529 | BM2 (selicrelumab) (antibody, human IgG2, kappa, V domains shown, Benchmark antibody, prepared in-house; also called CD40-BM2; benchmark) VH: not shown VL: DIQMTQSPSSVSASVGDRVTITCRASQGIYSWLAWYQQKPGKAPNLLIYTASTLQSGVPSRFSGSGSGTDFTLTISSLQPEDFATYYCQQANIFPLTFGGGTKVEIKR
